The record followed here is publication PMC8216272.

The target of data set [1] is T1, myoglobin (UniProt P02144 2-154).
T1 sequence: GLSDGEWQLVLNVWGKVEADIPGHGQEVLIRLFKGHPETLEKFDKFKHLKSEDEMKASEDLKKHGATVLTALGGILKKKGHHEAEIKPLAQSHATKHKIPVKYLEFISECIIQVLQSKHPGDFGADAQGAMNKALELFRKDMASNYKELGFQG
As to the kind of experiment: aptamer blotting.

For data set [2], the target named is T1, myoglobin. As to the kind of experiment: aptamer blotting. The source holds these as a separate data set.
For data set [3], the target named is T1, myoglobin. As to the kind of experiment: aptamer blotting. This is another data set of the same source.
Data set [4] has as its target T1, myoglobin. Kind of data set: aptamer blotting. The source holds these as a separate data set.
The target of data set [5] is T1, myoglobin. Kind of data set: absorption spectroscopy.
Data set [6] deals with T1, myoglobin. Kind of data set: SPR. Background: Surface plasmon resonance follows binding to a sensor surface in real time, without labels.

In the case of GGGTGGGAGGGAGGG (structured_DNA) [PEA1-13], in data set [1], the binding result is reported as “binds”.

B1: N24-06 (structured_DNA)
DNA: ACTAGAACTGATCTACAATTTGGGGGGGTTTTGGGGGGGTTGTTGTTTTCTACATCTCAGCATTCT
For B1, the binding result in data set [2] was “binds”.

B2: N24-04 (structured_DNA)
DNA: ACTAGAACTGATCTACAATTTGGGGGGGTTTTCTGGGGGGGTTTTTTTTCTACATCTCAGCATTCT
As to B2, the binding result in data set [2] was “binds”.

B3: N24-07 (with primer sites) (structured_DNA)
DNA: ACTAGAACTGATCTACAATTTGGGTGGGTTTTCTTTGGGTTGGGCTTTTCTACATCTCAGCATTCT
Take B3: the binding result in data set [2] is “binds”.

B4: N24-01 (structured_DNA)
DNA: ACTAGAACTGATCTACAATTTAGGCCGGGTGTTGGGTGGGTAGGGTTTTCTACATCTCAGCATTCT
With B4, the binding result in data set [2] is on record as “binds”.

For GGGATAGGGTTGGGCACTCACAGCTGAATGGG (structured_DNA) [PSA-PQS2], in data set [3], the binding result is “binds”.

For GGGTGGGGGTGGGTTTCTTGGGGTGTAAAGTGGG (structured_DNA) [HER2-PQS3], in data set [3], the binding result was “binds”.

With GGGAAGGAGGGAGGAAGGGAGGGAGGG (structured_DNA) [aFGF-PQS20], the binding result in data set [3] is given as “binds”.

Turning to TTTTTTTTTTTTTTTTT (ssDNA) [T17], in data set [4], the binding result was “binds”.

For GGGTGGGTTTTCTTTGGGTTGGGC (structured_DNA) [N24-07 core], the binding result in data set [5] was “binds”.

B5: N24-03 (structured_DNA)
DNA: ACTAGAACTGATCTACAATTTGGGTTGGGGGGGTTTTGGGTTTTTTTTTCTACATCTCAGCATTCT
With B5, the binding result in data set [2] is on record as “binds”.

Turning to GGGCCGGGTTGGGTGTAGAGTGGG (structured_DNA) [PEA1-02], in data set [1], the binding result is “binds”.

Consider GGGAAGGGTTGGGAGGG (structured_DNA) [PEA1-16], for which the binding result in data set [1] is “binds”.

With GGGCCGGGAGGGAGGG (structured_DNA) [PEA1-19], the binding result in data set [1] is reported as “binds”.

Consider GGGTGGGTTTCTTGGGAGGG (structured_DNA) [PEA1-11], for which the binding result in data set [1] is recorded as “binds”.

With GGGTGGGAAGGGTTGGG (structured_DNA) [PEA1-06], in data set [1], the binding result was “binds”.

What is called Kd is the constant that tells how readily two partners part at equilibrium. Lower therefore signals higher affinity. As for GGGCGGGTTGGGCTGGG (structured_DNA) [PEA3-01], in data set [6], the equilibrium dissociation constant (Kd) is 5.8 nM.

As to GGGCCGGGAGGGTGCAGGG (structured_DNA) [Annexin II-PQS], the binding result in data set [3] is recorded as “binds”.

On to GGGTGGGTTGGGAGGG (structured_DNA) [PEA1-20], for which the binding result in data set [1] is given as “binds”.
